Measurements taken from PMC4737156, “Taking a molecular motor for a spin: helicase mechanism studied by spin labeling and PELDOR”.
Positions count from the first letter of the chain named.

Legend:
[1] = biological target: T1, PcrA E74C/Q506C-R1 (1A-2B) (Bacillus stearothermophilus, UniProt P56255 1-724, E74C;Q506C); assay: PELDOR (DEER) EPR; no nucleotide; distances 35 and 45 A (0.5:1); PELDOR in D2O buffer (composition, pH not given in material): PcrA 70 uM, DNA 150 uM, nucleotide 10-fold excess, 1 mM MgCl2, 5% EG-d6; XPD 40-50 uM, DNA about 2x, nucleotide/MgCl2 1 mM; settings: protein: recombinant; tags: none stated; hairpin, 11 bp duplex, 3' overhang 10 nt
T1 sequence: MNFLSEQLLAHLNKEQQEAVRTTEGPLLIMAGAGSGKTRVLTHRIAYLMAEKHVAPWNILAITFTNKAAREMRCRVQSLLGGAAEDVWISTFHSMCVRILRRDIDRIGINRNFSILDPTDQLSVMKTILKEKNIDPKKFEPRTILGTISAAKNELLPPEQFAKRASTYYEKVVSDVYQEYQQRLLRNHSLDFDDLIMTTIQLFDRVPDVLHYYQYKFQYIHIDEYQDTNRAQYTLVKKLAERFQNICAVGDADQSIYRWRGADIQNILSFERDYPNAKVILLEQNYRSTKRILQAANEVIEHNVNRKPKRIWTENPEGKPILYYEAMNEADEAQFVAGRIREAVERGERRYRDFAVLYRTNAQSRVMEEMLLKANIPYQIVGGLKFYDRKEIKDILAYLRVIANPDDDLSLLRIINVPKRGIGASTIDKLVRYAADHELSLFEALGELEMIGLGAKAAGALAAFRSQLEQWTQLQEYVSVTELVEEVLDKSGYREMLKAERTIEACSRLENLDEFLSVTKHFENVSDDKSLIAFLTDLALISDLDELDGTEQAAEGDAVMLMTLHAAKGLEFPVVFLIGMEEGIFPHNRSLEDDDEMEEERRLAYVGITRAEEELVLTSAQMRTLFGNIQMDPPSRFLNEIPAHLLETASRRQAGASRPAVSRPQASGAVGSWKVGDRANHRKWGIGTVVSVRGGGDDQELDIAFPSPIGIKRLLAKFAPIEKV

[2] = biological target: T2, PcrA V344C/Q506C-R1 (2A-2B) (Bacillus stearothermophilus, UniProt P56255 1-724, V344C;Q506C); assay: PELDOR (DEER) EPR; no nucleotide; distances 37.3 and 44.1 A (1:0.7); PELDOR in D2O buffer (composition, pH not given in material): PcrA 70 uM, DNA 150 uM, nucleotide 10-fold excess, 1 mM MgCl2, 5% EG-d6; XPD 40-50 uM, DNA about 2x, nucleotide/MgCl2 1 mM; settings: protein: recombinant; tags: none stated; hairpin, 11 bp duplex, 3' overhang 10 nt
T2 sequence: T1 sequence with C74E, V344C

CGAGCACTGCTTTAGCAGTGCTCGTTTTTTTTTT (structured_DNA) [hairpin with 3'-(dT)10 overhang]
binding result [1]: binds | binding result [2]: binds
